Data as given in patent US20200292534A1.

T1: NLpoly11S
T1 chain: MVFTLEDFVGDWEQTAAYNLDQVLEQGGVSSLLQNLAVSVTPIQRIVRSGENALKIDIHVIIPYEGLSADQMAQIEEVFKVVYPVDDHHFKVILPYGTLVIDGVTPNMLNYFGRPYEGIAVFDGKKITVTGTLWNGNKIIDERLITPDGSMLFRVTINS


Target: T1, NLpoly11S
Test: luminescence complementation titration, one-site specific binding fit

Row | Binder | Bmax | Kd
1 | VEGYRLFEQIS (modifications not checked) [array2.76] | 18000 | 52.8 µM
2 | VEGYRLFQKES (modifications not checked) [array2.66] | 3490 | 2.87 µM
3 | VTGYRLFEQIS (modifications not checked) [array2.22] | 121000 | 10.8 µM
4 | VEGYRLFEQAS (modifications not checked) [array2.77] | 26900 | 48.3 µM
5 | VTGYRLFKKIS (modifications not checked) [array2.1] | 135000 | 0.0133 µM
6 | VEGYRLFKKAS (modifications not checked) [array2.56] | 15900 | 0.641 µM
7 | VTGYRLFQQIS (modifications not checked) [array2.13] | 19400 | 0.876 µM
8 | VEGYRLFQQIS (modifications not checked) [array2.67] | 5220 | 8.14 µM
9 | VEGYRLFQKEL (modifications not checked) [array2.93] | 4090 | 1.69 µM
10 | VEGYRLFQEIS (modifications not checked) [array2.70] | 29200 | 230 µM
11 | VEGYRLFEEAS (modifications not checked) [array2.80] | 383000 | 1420 µM
12 | VTGYRLFKEAS (modifications not checked) [array2.8] | 3930 | 2.57 µM
13 | VEGYRLFKEAS (modifications not checked) [array2.62] | 2380 | 22.1 µM
14 | VEGYRLFEKES (modifications not checked) [array2.75] | 1170 | 2.97 µM
15 | VTGYRLFKEIS (modifications not checked) [array2.7] | 32000 | 4.44 µM
16 | VTGYRLFKEES (modifications not checked) [array2.9] | 1450 | 3.86 µM
17 | VTGYRLFEQES (modifications not checked) [array2.24] | 1830 | 7.83 µM
18 | VEGYRLFKKIL (modifications not checked) [array2.82] | 43400 | 0.563 µM
19 | VTGYRLFQQAS (modifications not checked) [array2.14] | 4350 | 1.11 µM
20 | VEGYRLFKEIL (modifications not checked) [array2.88] | 9830 | 17.8 µM
21 | VEGYRLFKKEL (modifications not checked) [array2.84] | 7830 | 1.41 µM
22 | VEGYRLFEKEL (modifications not checked) [array2.102] | 962 | 5.79 µM

Row | Binder | Bmax | Kd
23 | VEGYRLFKQIS (modifications not checked) [array2.58] | 21500 | 2.09 µM
24 | VTGYRLFEKIS (modifications not checked) [array2.19] | 123000 | 0.605 µM
25 | VTGYRLFQKIS (modifications not checked) [array2.10] | 113000 | 0.0812 µM
26 | VEGYRLFQQIL (modifications not checked) [array2.94] | 2280 | 9.39 µM
27 | VTGYRLFKQES (modifications not checked) [array2.6] | 5010 | 1.35 µM
28 | VTGYRLFQKAS (modifications not checked) [array2.11] | 80900 | 0.749 µM
29 | VEGYRLFKKES (modifications not checked) [array2.57] | 3370 | 0.891 µM
30 | VEGYRLFQEAL (modifications not checked) [array2.98] | 2700 | 99.9 µM
31 | VEGYRLFEQAL (modifications not checked) [array2.104] | 9880 | 336 µM
32 | VEGYRLFQKAL (modifications not checked) [array2.92] | 12300 | 2.02 µM
33 | VEGYRLFKEAL (modifications not checked) [array2.89] | 5570 | 42.4 µM
34 | VTGYRLFEKES (modifications not checked) [array2.21] | 8620 | 1.49 µM
35 | VEGYRLFKQEL (modifications not checked) [array2.87] | 1790 | 12.6 µM
36 | VEGYRLFKEES (modifications not checked) [array2.63] | 17300 | 220 µM
37 | VEGYRLFQEAS (modifications not checked) [array2.71] | 44900 | 24 µM
38 | VTGYRLFKQAS (modifications not checked) [array2.5] | 31000 | 1.95 µM
39 | VEGYRLFEQES (modifications not checked) [array2.78] | 39400 | 252 µM
40 | VEGYRLFKKIS (modifications not checked) [array2.55] | 42400 | 0.078 µM
41 | VTGYRLFQQES (modifications not checked) [array2.15] | 5200 | 7.49 µM
42 | VEGYRLFQQAL (modifications not checked) [array2.95] | 38200 | 18.8 µM
43 | VTGYRLFQEES (modifications not checked) [array2.18] | 5110 | 67.3 µM
44 | VTGYRLFQEIS (modifications not checked) [array2.16] | 1320 | 2.56 µM

Row | Binder | Bmax | Kd
45 | VEGYRLFKQAL (modifications not checked) [array2.86] | 2300 | 2.27 µM
46 | VEGYRLFKEEL (modifications not checked) [array2.90] | 12200 | 101 µM
47 | VTGYRLFEQAS (modifications not checked) [array2.23] | 3820 | 4.17 µM
48 | VTGYRLFKKAS (modifications not checked) [array2.2] | 104000 | 0.241 µM
49 | VEGYRLFEKIL (modifications not checked) [array2.100] | 35000 | 10.6 µM
50 | VEGYRLFQQEL (modifications not checked) [array2.96] | 105000 | 99.4 µM
51 | VEGYRLFQKIS (modifications not checked) [array2.64] | 36500 | 0.586 µM
52 | VEGYRLFEKIS (modifications not checked) [array2.73] | 22500 | 2.15 µM
53 | VTGYRLFQKES (modifications not checked) [array2.12] | 17200 | 0.417 µM
54 | VEGYRLFKQAS (modifications not checked) [array2.59] | 2300 | 2.09 µM
55 | VTGYRLFEKAS (modifications not checked) [array2.20] | 36300 | 1.79 µM
56 | VEGYRLFEKAS (modifications not checked) [array2.74] | 3810 | 4.14 µM
57 | VEGYRLFQKAS (modifications not checked) [array2.65] | 10600 | 1.93 µM
58 | VEGYRLFEKAL (modifications not checked) [array2.101] | 6370 | 12.6 µM
59 | VEGYRLFKKAL (modifications not checked) [array2.83] | 20800 | 1.59 µM
60 | VEGYRLFQQAS (modifications not checked) [array2.68] | 3750 | 20 µM
61 | VEGYRLFKQES (modifications not checked) [array2.60] | 4350 | 10.6 µM
62 | VEGYRLFKQIL (modifications not checked) [array2.85] | 31400 | 10.3 µM
63 | VEGYRLFQKIL (modifications not checked) [array2.91] | 50500 | 2.08 µM
64 | VEGYRLFKEIS (modifications not checked) [array2.61] | 5460 | 14.4 µM
